In FireProtDB (doi:10.1016/s0022-2836(02)00630-7):

Settings: Escherichia coli (strain K12), pH 7, CD, Potassium phosphate 10 mM, reversible: yes

## Phosphocarrier protein HPr wild type, P0AA04
25 °C, Urea
  denaturant m value: 1.06 kcal/mol/M
  denaturant midpoint (higher = more stable): 4.34 M
Thermal
  Tm: 63.4 °C
  unfolding enthalpy (van 't Hoff): 75.8 kcal/mol
